From paper PMC6486635, “IMP1 KH1 and KH2 domains create a structural platform with unique RNA recognition and re-modelling properties”

Key:
IMP1 KH1KH2DD [1] = biological target: T1, IMP1 KH1KH2DD (Homo sapiens, UniProt Q9NZI8 194-369, K294D;E295D); assay: ITC; 10 mM sodium phosphate pH 7.4, 50 mM NaCl; ITC 25 C with 2 mM TCEP; BLI 30 C with 0.5 mM TCEP and 0.5 mg/ml BSA; NMR 0.5 mM TCEP; RNAsin 40-100 u/ml; details: protein: recombinant; tags: 6xHis-GST removed by TEV
IMP1 KH1DDKH2 = IMP1 KH1DDKH2 (Homo sapiens, UniProt Q9NZI8 194-369, K213D;E214D); assay: as above; details: protein: recombinant; tags: 6xHis-GST removed by TEV
IMP1 KH1DDKH2, sequence (Q9NZI8 194-369 K213D/E214D): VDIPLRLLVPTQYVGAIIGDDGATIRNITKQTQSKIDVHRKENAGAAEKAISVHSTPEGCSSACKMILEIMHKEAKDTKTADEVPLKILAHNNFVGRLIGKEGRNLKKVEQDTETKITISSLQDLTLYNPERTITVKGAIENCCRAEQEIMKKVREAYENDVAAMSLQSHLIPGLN

IMP1 KH1KH2DD [2] = biological target: T1, IMP1 KH1KH2DD; assay: BLI; 10 mM sodium phosphate pH 7.4, 50 mM NaCl; ITC 25 C with 2 mM TCEP; BLI 30 C with 0.5 mM TCEP and 0.5 mg/ml BSA; NMR 0.5 mM TCEP; RNAsin 40-100 u/ml; details: protein: recombinant; tags: 6xHis-GST removed by TEV; label: 5'-biotin
IMP1 KH1KH2 wild type = IMP1 KH1KH2 wild type (Homo sapiens, UniProt Q9NZI8 194-369); assay: as above; details: protein: recombinant; tags: 6xHis-GST removed by TEV; label: 5'-biotin
IMP1 KH1KH2 wild type, sequence (Q9NZI8 194-369): as the sequence (Q9NZI8 194-369 K213D/E214D) above, with D20K, D21E counted along it

T1 sequence (Q9NZI8 194-369 K294D/E295D): as the sequence (Q9NZI8 194-369 K213D/E214D) above, with D20K, D21E, K101D, E102D counted along it

| Binder | Kd (IMP1 KH1KH2DD [1]) [µM] | also measured |
| --- | --- | --- |
| UCCGU (ssRNA) | 0.5 ± 0.01 |  |
| UACGU (ssRNA) | 25 ± 1 |  |
| UCCGC (ssRNA) | 0.8 ± 0.04 |  |
| UCCCG (ssRNA) |  | Kd (IMP1 KH1DDKH2): 100 ± 4 µM |
| UUCCG (ssRNA) |  | Kd (IMP1 KH1DDKH2): 124 ± 15 µM |
| CACAGCAUACAUCCUGUCCGUC (ssRNA) [MYCRNA] |  | Kd (IMP1 KH1KH2DD [2]): 1.76 ± 0.2 µM; Kd (IMP1 KH1KH2 wild type): 0.046 ± 0.008 µM |
| UGCGU (ssRNA) | 26 ± 2 |  |
| UUCGU (ssRNA) | 25 ± 2 |  |
| UCAGU (ssRNA) | 1 ± 0.03 |  |
| UCUGU (ssRNA) | 2.6 ± 0.08 |  |
| UCCCU (ssRNA) |  | binding result (IMP1 KH1KH2DD [1]): no binding |
